Thrombin generation assay, FXI-depleted plasma with tissue factor: time to peak thrombin, Kd and Ki data for three molecules are collected here from patent US20170321218A1, “FACTOR XIA-SPECIFIC APTAMERS” (CANADIAN BLOOD SERVICES, published 2017).

Data set [1] deals with thrombin (UniProt P00734). Briefly: cell-based or functional assay.
For data set [2], the target named is T1, Factor XIa (FXIa) (UniProt P03951;P03951 P03951:19-387,P03951:388-625). The experiment in a line: SPR; ±0.1 nM; ka 5.2e4 M-1s-1, kd 9.5e-5 s-1; 100 mM HEPES pH 7.4, 150 mM NaCl, 0.01% Tween 20, 25 C; SCRAPT reference cell subtracted. The following applies: chain copies: 2,2; label: 3'-biotin; predicted stem-loop hairpin with bulge and two small loops. On the procedure:
Kinetic measurements of aptamer binding were analyzed by SPR on a Biacore T200 (GE Healthcare). To immobilize the aptamer, a CM5 sensor chip (GE Healthcare) was activated with a 0.2 M N-ethyl-N′-(dimethylamino-propyl) carbodiimide (EDC) and 0.05 M N-hydroxysuccinimide (NHS) (Sigma) solution, followed by binding of streptavidin (0.2 mg/ml, pH 4.5). FELIAP and SCRAPT (3′ biotinylated) in 100 mM HEPES (pH 7.4), 150 mM NaCl, 0.01% Tween 20 were immobilized on the streptavidin-coated chips at a flow rate of 10 μL/min to 100 response units (RU). Flow cells were regenerated with 0.2% SDS (w/vol). FXIa at concentrations varying from 15.671 nM to 500 nM was injected at a flow rate of 50 μl/min for 180 s to monitor association, and HEPES buffer for 1800 s to monitor dissociation. The signal from the SCRAPT-immobilized flow cell was used as a reference and subtracted from the signal arising from FXIa binding to the FELIAP-immobilized cell. Binding of FXIa and aptamer was quantified by global analysis of on and off rates using the Langmuir 1:1 binding model, as determined with the instrument's software provided by the manufacturer (Biacore). All experiments were done in triplicate.

The target in data set [3] is T1, Factor XIa (FXIa). The experiment in a line: inhibition; competitive inhibition of S2366 amidolysis; PPNE pH 7.4, 37 C. Conditions: chain copies: 2,2; predicted stem-loop hairpin with bulge and two small loops. On the procedure: The mode of inhibition of FELIAP was investigated by fixing the concentrations of chromogenic substrate and FXIa and increasing the concentration of FELIAP and measuring the rate of substrate cleavage. A dose-dependent reduction in the reaction rate was observed as FELIAP was increased from 0 to 20 μM, while the same concentrations of SCRAPT had no inhibitory effect (FIG. 2A). Next, the concentration of chromogenic substrate S2366 was varied while keeping FXIa constant at different concentrations of FELIAP (FIG. 2B).

T1 sequence (P03951 19-387, chain 1 of 2): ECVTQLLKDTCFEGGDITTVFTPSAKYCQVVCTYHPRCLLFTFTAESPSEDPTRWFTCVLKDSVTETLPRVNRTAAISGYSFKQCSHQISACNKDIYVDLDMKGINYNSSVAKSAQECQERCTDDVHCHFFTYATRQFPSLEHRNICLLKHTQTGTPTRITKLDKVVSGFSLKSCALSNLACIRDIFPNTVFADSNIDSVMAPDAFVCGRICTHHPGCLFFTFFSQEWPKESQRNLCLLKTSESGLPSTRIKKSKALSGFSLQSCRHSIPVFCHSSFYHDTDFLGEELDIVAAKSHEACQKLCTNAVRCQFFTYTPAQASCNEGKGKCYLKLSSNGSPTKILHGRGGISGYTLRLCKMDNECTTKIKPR
T1 sequence (P03951 388-625, chain 2 of 2): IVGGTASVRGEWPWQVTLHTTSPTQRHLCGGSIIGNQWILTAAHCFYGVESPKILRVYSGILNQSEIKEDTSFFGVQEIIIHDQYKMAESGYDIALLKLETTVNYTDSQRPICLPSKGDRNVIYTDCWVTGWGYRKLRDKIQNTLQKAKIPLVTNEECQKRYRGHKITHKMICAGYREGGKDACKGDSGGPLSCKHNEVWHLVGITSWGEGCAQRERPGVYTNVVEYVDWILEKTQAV

As for “recombinant His-tagged hirudin variant 3”, the thrombin generation assay, FXI-depleted plasma with tissue factor: time to peak thrombin in data set [1] was found to be 3.1 fold.

B1: FELIAP 3'-biotin (ssDNA)
DNA: GAATTCTAATACGACTCACTATAAACCTATCGGACTATTGTTAGTGATTTTTATAGTGTGCGTCCAACACATCG
Take B1: in data set [2], the Kd is 1.8 nM.

B2: FELIAP (Apt10-10) (ssDNA)
DNA: GAATTCTAATACGACTCACTATAAACCTATCGGACTATTGTTAGTGATTTTTATAGTGTGCGTCCAACACATCG
In the case of B2, the Ki in data set [3] is 29 µM.

One may read the Kd as the concentration at which binding is half-saturated. What is called Ki is a measure of affinity in units of concentration, obtained from inhibition or displacement.
